Experimental data as given in US20100233189A1.

Target: human TSHR with mutation K209E expressed in CHO cells (human) (UniProt P16473)
Experiment: cell-based or functional assay

Chain of UniProt P16473 (P16473 22-764 K209E/E727D): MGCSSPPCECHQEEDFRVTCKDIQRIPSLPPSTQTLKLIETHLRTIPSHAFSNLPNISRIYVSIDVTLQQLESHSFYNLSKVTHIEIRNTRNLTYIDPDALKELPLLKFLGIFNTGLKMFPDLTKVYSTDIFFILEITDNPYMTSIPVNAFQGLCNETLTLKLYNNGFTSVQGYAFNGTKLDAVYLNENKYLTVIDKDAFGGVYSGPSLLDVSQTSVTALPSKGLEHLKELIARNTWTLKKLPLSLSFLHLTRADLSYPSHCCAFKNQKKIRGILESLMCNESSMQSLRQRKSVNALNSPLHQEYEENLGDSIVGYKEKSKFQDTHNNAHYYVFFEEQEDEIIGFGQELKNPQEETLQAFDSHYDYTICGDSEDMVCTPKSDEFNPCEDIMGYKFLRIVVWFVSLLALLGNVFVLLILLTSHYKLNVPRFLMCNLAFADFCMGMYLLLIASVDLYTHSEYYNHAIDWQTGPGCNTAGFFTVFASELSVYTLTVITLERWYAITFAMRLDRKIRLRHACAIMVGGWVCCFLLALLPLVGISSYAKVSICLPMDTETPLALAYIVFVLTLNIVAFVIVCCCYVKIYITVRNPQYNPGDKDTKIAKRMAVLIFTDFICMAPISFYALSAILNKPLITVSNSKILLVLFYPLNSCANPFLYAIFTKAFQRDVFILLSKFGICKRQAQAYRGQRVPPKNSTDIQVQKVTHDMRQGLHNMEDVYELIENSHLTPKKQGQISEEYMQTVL

M22 stimulating activity (cyclic AMP production in TSHR expressing CHO cells) (% of activity with the wild type TSHR): < 20
B1: M22 Fab (Fab fragment of human monoclonal thyroid stimulating autoantibody hMAb TSHR1) (Fab, from another filing, V domains shown)
VH: QVQLVQSGAEVKKPGESLKISCRGSGYRFTSYWINWVRQLPGKGLEWMGRIDPTDSYTNYSPSFKGHVTVSADKSINTAYLQWSSLKASDTGMYYCARLEPGYSSTWSVNWGQGTLVTVSS
VL: LTVLTQPPSVSGAPRQRVTISCSGNSSNIGNNAVNWYQQLPGKAPKLLIYYDDQLPSGVSDRFSGSRSGTSASLAIRGLQSEDEADYYCTSWDDSLDSQLFGGGTRLTVLG
